Numbering of substitutions follows the chain as printed.

This is an account of results in patent publication US20120135912A1 (PERSEID THERAPEUTICS, published 2012).

The target of test [1] is T1, human VLA4-Fc (alpha4-Fc/beta1-Fc heterodimer) (human).
T1 construct: Soluble heterodimer from CHO cells, Protein A purified; also called VLA-Fc
As to the kind of experiment: SPR (BIACORE), VLA4-Fc captured by anti-human IgG, 1 mM MnCl2, 1:1 Langmuir. Here is the method:
(§1) The kinetic 2D-VCAM-1 assay measures binding kinetics of a dimeric ligand (e.g., VLA-Fc fusion protein or LPAM-1-Fc fusion protein) coated to sensor chips and monomeric analyte (e.g., 2D-VCAM-1 variant polypeptides) in the mobile phase. Goat anti-human IgG antibody (Jackson ImmunoResearch, Catalog No. 105-005-098) was immobilized on CM-5 sensor chips (GE Healthcare, Catalog No. BR-1000-14) according to the manufacturer's protocol. Antibody was diluted to 30 μg/ml in immobilization buffer (10 mM sodium acetate, pH 5.0 (GE Healthcare, Catalog No. BR-1003-51)). […] Un-reacted sites were quenched with 35 μl of 1 M ethanolamine-HCl pH 8.5 (GE Healthcare, Catalog No. BR-1000-50). This procedure typically yielded 15,000 response units (RU) of coupled antibody. VLA4-Fc or LPAM-1-Fc, prepared as described in Examples 3 and 4, respectively, were bound to antibody-coated sensor chips by injection of 20 μl of ligand solution (20 μg/ml protein in HBS-P-Mn buffer at a flow rate of 10 μl/min). Ligand capture levels were typically 200-300 RU. 2D-VCAM-1 variant polypeptides were diluted in HBS-P-Mn and flowed over ligand-coated sensor chips for 2 min at 30 μl/min, followed by 5 min incubation with in HBS-P-Mn containing no protein at the same flow rate. For 2D-VCAM-1 variant polypeptides having very slow dissociation rates from VLA4-Fc or LPAM-1-Fc, kinetic assays were also conducted using longer dissociation times (e.g., 20 min). Rmax signal levels for 2D-VCAM-1 variant polypeptides ranged from approximately 5-25 RU. Regeneration between cycles was performed by 200 sec incubation with 10 mM glycine buffer (pH 1.7) at 50 μl/min. New chips were subjected to 4-5 cycles of capture/binding/regeneration prior to use in actual experiments. Data from a reference cell containing goat anti-human IgG capture antibody alone was subtracted from data obtained from flow cells containing captured VLA4-Fc or LPAM-1-Fc. Typically, 8 dilutions of 2D-VCAM-1 variant polypeptides ranging from 150 nM to 0.069 nM were analyzed against a blank reference (HBS-P-Mn buffer alone).

Test [2] addresses T2, human LPAM-1-Fc (alpha4-Fc/beta7-Fc heterodimer) (human).
T2 construct: Soluble heterodimer from CHO cells, Protein A purified
In words: SPR (BIACORE), LPAM-1-Fc captured by anti-human IgG, 1 mM MnCl2, 1:1 Langmuir. The procedure: as §1

For test [3], the target named is T1, human VLA4-Fc (alpha4-Fc/beta1-Fc …). As to the kind of experiment: ELISA, VLA4-Fc coated, 1 mM MnCl2; from EC50 values. Here is the method: The relative binding affinities of various 2D-VCAM-1 variants to immobilized VLA4-Fc (α4-β1-Fc) heterodimer, relative to a control protein (e.g., Q38L-2D-VCAM-1 or to human 2D-VCAM-1), were deter using a solid-phase ELISA assay. MAXISORP™ ELISA plates (NUNC) were coated overnight at 4° C. with 50 ul VLA4-Fc heterodimer, 2 ug/ml in TBS-M (TBS (25 mM Tris-HCl pH 7.5, 150 mM NaCl) with 1 mM MnCl2), washed with TBS-T (TBS with 0.05% TWEEN-20), blocked with 200 ul 3% milk in TBS-M for 1 h at room temperature, and washed again with TBS-T. A four-fold dilution series of the purified 2D-VCAM variants to be assayed was made in COSTAR U-bottom plates in TBS-TMC (TBS with 0.05% Tween-20, 1 mM MnCl2, and 1% casein; Sigma) with a starting concentration of 8.2 uM (200 ug/ml). The dilution series was transferred into the ELISA plate which was incubated at room temperature for 2 h and subsequently washed with TBS-T. Bound 2D-VCAM protein was detected by incubation with 0.5 ug/ml of biotinylated anti-human VCAM antibody (R&D Systems, Catalog No. BAF809) in TBS-TMC for 1 h at room temperature followed by a TBS-MT (TBS plus 1 mM MnCl2 and 0.02% TWEEN-20) wash and subsequent incubation with 1:2000 dilution of streptavidin-HRP (BD Biosciences, Catalog No. 554066) in TBS-TMC for 30 min at room temperature. […] Typical development times ranged from […] and development was stopped by addition of 50 ul 2M H₂SO₄ (EM, Catalog No. SX1244-75). […] Fold-improvement in binding was calculated relative to a control protein (e.g., Q38L-2D-VCAM-1 or human 2D-VCAM-1) assayed on the same plate.

Test [4] has as its target T2, human LPAM-1-Fc (alpha4-Fc/beta7-Fc …). As to the kind of experiment: ELISA, LPAM-1-Fc coated, 1 mM MnCl2; from EC50 values. Here is the method: The relative binding affinities of various 2D-VCAM variant proteins to immobilized LPAM-1-Fc (α4-Fc/β-7-Fc) heterodimer, relative to a control protein (e.g., Q38L-2D-VCAM-1 or human 2D-VCAM-1), were determined using a solid-phase ELISA assay. MAXISORP™ ELISA plates (NUNC) were coated overnight at 4° C. with 50 ul LPAM-1-Fc heterodimer (2 ug/ml in TBS-M, TBS (25 mM TRIS-HCl pH 7.5, 150 mM NaCl with 1 mM MnCl2), washed with TBS-T (TBS with 0.05% Tween-20), blocked with 200 ul 3% milk in TBS-M for 1 hr at room temperature, and washed again with TBS-T. A four-fold dilution series of the purified 2D-VCAM-1 variants to he assayed was made in COSTAR U-bottom plates in TBS-TMC (TBS with 0.05% Tween-20, 1 mM MnCl2 and 1% casein; Sigma) with a starting concentration of 8.2 uM (200 ug/ml). The dilution, series were transferred into the ELISA plate which was incubated at room temperature for 2 h and subsequently washed with TBS-T. Bound 2D-VCAM-1 protein was detected by incubation with 0.5 ug/ml of biotinylated anti-human VCAM antibody (R&D Systems, Catalog No. BAF809) in TBS-TMC for 1 h at room temperature followed by a TBS-T wash and subsequent incubation with 1:2000 dilution of streptavidin-HRP (BD Biosciences, Catalog No. 554066) in TBS-TMC for 30 min at room temperature. […] Typical development times ranged from 5-15 min and development was stopped by addition of 50 ul 2M H₂SO₄ (EM, Catalog No. SX1244-75). […] Fold-improvement in binding was calculated relative to a control protein (Q38L-2D-VCAM-1) assayed on the same plate.
(In an ELISA, binding on a coated surface is turned into a signal by an enzyme label.)

The target is the same in test [5]. In words: SPR (BIACORE) as in Example 12, polypeptide purified from E. coli as analyte on captured LPAM-1-Fc; KD drawn as bars (Example 20). Background: SPR reads the build-up and loss of mass on a sensor chip optically.
The target of test [6] is T1, human VLA4-Fc (alpha4-Fc/beta1-Fc …). In words: SPR (BIACORE) as in Example 12, polypeptide purified from E. coli as analyte on captured VLA4-Fc; the black bar is broken and the value is written over it (Example 20).

T1 sequence (chain, as listed by the source limits assumed, form in doubt, chain 1 of 2): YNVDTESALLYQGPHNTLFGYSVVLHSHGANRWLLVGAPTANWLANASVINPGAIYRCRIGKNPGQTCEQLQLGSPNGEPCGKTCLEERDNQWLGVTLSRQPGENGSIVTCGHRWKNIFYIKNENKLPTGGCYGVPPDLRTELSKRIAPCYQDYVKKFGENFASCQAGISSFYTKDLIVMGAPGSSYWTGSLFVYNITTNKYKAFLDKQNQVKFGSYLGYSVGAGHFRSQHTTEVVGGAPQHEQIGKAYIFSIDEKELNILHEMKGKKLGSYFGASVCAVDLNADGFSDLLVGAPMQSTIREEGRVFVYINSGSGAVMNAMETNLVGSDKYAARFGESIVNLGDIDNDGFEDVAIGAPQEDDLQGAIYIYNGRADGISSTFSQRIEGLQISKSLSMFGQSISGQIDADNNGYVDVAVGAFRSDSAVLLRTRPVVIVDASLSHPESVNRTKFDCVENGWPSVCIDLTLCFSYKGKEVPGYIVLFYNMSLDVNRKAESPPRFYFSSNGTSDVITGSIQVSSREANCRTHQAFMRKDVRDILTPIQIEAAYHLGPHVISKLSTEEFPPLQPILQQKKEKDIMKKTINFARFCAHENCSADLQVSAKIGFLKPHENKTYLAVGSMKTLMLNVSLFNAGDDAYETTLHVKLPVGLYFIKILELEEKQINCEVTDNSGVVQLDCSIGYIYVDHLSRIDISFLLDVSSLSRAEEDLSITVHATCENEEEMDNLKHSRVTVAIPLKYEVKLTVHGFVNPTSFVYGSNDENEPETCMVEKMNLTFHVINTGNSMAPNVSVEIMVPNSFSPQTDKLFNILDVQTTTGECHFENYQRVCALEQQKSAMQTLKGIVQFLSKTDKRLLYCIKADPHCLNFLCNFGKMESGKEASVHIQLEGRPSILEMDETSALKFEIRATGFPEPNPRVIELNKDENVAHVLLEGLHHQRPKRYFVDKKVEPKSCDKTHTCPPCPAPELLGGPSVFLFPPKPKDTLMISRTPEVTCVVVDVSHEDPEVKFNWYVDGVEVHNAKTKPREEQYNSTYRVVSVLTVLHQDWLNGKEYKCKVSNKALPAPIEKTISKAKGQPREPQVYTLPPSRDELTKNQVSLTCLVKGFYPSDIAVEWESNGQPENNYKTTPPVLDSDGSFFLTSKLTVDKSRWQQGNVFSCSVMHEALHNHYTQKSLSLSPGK
T1 sequence (chain, as listed by the source limits assumed, form in doubt, chain 2 of 2): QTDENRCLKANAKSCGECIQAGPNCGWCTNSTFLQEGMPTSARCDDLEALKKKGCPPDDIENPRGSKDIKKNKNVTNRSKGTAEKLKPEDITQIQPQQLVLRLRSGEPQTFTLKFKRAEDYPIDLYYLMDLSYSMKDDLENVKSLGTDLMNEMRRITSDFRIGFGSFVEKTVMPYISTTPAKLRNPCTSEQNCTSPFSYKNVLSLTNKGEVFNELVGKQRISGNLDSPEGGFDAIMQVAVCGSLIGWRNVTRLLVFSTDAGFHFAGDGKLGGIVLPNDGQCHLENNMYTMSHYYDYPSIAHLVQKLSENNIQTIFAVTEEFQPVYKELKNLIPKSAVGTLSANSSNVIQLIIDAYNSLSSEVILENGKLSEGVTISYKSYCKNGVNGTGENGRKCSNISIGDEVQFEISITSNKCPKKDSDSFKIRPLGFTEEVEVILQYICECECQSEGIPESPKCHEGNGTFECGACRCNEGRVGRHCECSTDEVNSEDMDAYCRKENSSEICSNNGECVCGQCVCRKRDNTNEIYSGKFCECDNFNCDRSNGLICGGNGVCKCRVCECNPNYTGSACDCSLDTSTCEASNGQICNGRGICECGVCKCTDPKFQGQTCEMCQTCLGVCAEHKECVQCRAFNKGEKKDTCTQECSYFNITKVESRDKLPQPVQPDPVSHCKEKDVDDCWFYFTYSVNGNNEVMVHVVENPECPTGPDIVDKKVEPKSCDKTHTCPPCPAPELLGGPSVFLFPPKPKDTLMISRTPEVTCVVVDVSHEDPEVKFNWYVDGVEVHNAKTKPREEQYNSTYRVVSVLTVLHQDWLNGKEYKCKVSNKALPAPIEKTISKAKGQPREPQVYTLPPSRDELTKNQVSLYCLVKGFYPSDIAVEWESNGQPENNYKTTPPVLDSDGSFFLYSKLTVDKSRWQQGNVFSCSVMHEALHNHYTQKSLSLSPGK
T2 sequence (chain, as listed by the source limits assumed, chain 1 of 2): as the sequence (chain, as listed by the source limits assumed, form in doubt, chain 1 of 2) above
T2 sequence (chain, as listed by the source limits assumed, chain 2 of 2): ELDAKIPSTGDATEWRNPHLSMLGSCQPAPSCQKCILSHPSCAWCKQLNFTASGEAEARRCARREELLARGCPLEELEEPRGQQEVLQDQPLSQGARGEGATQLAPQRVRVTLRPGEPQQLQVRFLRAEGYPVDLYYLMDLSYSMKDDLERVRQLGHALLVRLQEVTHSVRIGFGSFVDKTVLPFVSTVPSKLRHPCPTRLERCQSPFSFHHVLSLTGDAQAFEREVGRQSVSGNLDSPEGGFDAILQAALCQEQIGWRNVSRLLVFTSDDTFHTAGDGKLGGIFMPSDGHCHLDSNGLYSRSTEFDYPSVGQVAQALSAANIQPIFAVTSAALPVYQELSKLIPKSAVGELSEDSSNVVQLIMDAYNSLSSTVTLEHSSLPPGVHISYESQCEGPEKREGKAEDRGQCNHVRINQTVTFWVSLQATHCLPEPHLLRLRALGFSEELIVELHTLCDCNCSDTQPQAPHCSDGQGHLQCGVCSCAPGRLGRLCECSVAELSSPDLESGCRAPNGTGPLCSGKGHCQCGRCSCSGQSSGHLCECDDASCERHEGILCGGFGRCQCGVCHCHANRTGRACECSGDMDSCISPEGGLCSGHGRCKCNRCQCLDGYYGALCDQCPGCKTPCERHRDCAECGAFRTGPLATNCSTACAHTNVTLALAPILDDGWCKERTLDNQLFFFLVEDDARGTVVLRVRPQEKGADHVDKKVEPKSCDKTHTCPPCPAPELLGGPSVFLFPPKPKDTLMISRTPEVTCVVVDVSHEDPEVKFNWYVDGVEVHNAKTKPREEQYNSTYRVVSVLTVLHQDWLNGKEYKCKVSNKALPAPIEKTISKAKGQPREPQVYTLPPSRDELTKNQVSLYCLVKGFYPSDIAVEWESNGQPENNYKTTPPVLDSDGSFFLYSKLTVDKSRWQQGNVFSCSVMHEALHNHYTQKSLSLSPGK

B1: human 2D-VCAM-1 (ligand)
chain: FKIETTPESRYLAQIGDSVSLTCSTTGCESPFFSWRTQIDSPLNGKVTNEGTTSTLTMNPVSFGNEHSYLCTATCESRKLEKGIQVEIYSFPKDPEIHLSGPLEAGKPITVKCSVADVYPFDRLEIDLLKGDHLMKSQEFLEDADRKSLETKSLEVTFTPVIEDIGKVLVCRAKLHIDEMDSVPTVRQAVKELQVYISP
notes: also called wild type 2D-VCAM-1; wt-2D-VCAM-1; not shown: His tag
Regarding B1, in test [1], binding was characterised by a dissociation constant (Kd) of 15.2 nM and the “binding affinity for VLA4-Fc relative to human 2D-VCAM-1” value was found to be 1 fold. In addition, in test [2], the affinity, expressed as Kd, was 248 nM and the “binding affinity for LPAM-1-Fc relative to human 2D-VCAM-1” value was 1 fold.

B2: 2D-VCAM-1 variant Clone 147 (ligand)
chain: B1 chain with F32S, S34Y, T37P, Q38L, I39L, T74A, K79R
notes: not shown: His tag
For the molecule B2, in test [3], the “fold-improvement in binding relative to Q38L-2D-VCAM-1” value is 11 fold and the “fold-improvement in binding relative to human 2D-VCAM-1” value stood at 88 fold. The “fold improvement in binding relative to Q38L-2D-VCAM-1” value in test [4] stood at 23 fold.

B3: 2D-VCAM-1 variant Clone 150 (ligand)
chain: B1 chain with F32L, S34F, T37P, I39L, S41A, T74R, K79S
notes: not shown: His tag of the E. coli construct
As for B3, in test [3], the “fold-improvement in binding relative to Q38L-2D-VCAM-1” value came to 4 fold and the “fold-improvement in binding relative to human 2D-VCAM-1” value was 32 fold. Also, in test [1], the dissociation constant Kd turned out to be 0.417 nM and the “binding affinity for VLA4-Fc relative to human 2D-VCAM-1” value is 36 fold. Also, the “fold improvement in binding relative to Q38L-2D-VCAM-1” value in test [4] turned out to be 5 fold. In test [2], the Kd came out at 31.2 nM and the “binding affinity for LPAM-1-Fc relative to human 2D-VCAM-1” value was 8 fold.

B4: R1R7 (ligand)
2D-VCAM-1 variant polypeptide: MFKIETTPESRYLAQIGDSVSLTCSTTGCESPFFFWRPLLDSPLNGKVTNEGTTSTLTMNPVSFGNEHSYLCTARCESRKLEKGIQVEIYSFPKDPEIHLSGPLEAGKPITVKCSVADVYPFDRLEIDLLKGDHLMKSQEFLEDADRKSLETKSLEVTFTPVIEDIGKVLVCRAKLHIDEMDSVPTVRQAVKELQVYISP
notes: also called 146R1R7
In the case of B4, the binding result in test [5] is “binds”.

B5: R3R7 (ligand)
2D-VCAM-1 variant polypeptide: B4 2D-VCAM-1 variant polypeptide with F33L, P38T
notes: also called 146R3R7
For B5, in test [5], the binding result is “binds”.

B6: R1R6R7 (ligand)
2D-VCAM-1 variant polypeptide: B4 2D-VCAM-1 variant polypeptide with R75T
notes: also called 146R1R6R7
Consider B6, for which, in test [5], the binding result was “binds”.

B7: R5R7 (ligand)
2D-VCAM-1 variant polypeptide: B4 2D-VCAM-1 variant polypeptide with F33L, L40I
notes: also called 146R5R7
Take B7: in test [5], the binding result is listed as “binds”.

B8: R6R7 (ligand)
2D-VCAM-1 variant polypeptide: B4 2D-VCAM-1 variant polypeptide with F33L, R75T
notes: also called 146R6R7
Regarding B8, the binding result in test [5] is reported as “binds”.

B9: R3R5R7 (ligand)
2D-VCAM-1 variant polypeptide: B4 2D-VCAM-1 variant polypeptide with F33L, P38T, L40I
notes: also called 146R3R5R7
With B9, the binding result in test [5] is “binds”. In test [6], this molecule yielded a Kd of 0.25 nM.

B10: R1R3 (ligand)
2D-VCAM-1 variant polypeptide: B4 2D-VCAM-1 variant polypeptide with P38T, K80S
notes: also called 146R1R3
Take B10: the binding result in test [5] is on record as “binds”.

B11: R1R5 (ligand)
2D-VCAM-1 variant polypeptide: B4 2D-VCAM-1 variant polypeptide with L40I, K80S
notes: also called 146R1R5
B11: the binding result in test [5] is recorded as “binds”.

Broadly, the Kd is the concentration at which binding is half-saturated.
